Measured values reported in publication PMC4449276.

Target: chaperonin-containing TCP-1 (CCT), bovine (bovine) (UniProt Q32L40)
Experiment: native gel or EMSA

percent of the CCT binding of Hsc70	percent of the wild-type CCT binding	Substance
64%		DnaK_(Hsc70-185–190) (DnaK with T185GNRTI190 exchanged by Hsc70 V189GAERNV195) (from UniProt P0A6Y8 1-638) (natural protein)
	18%	Hsc70ΔC_(DnaK189–192) (Hsc70ΔC with V189GAE192 changed to DnaK T185GN187) (from UniProt P19120 1-554) (domain or fragment)
	6%	Hsc70ΔC_(DnaK189–195) (Hsc70ΔC with V189GAERNV195 substituted with DnaK TGNRTI) (from UniProt P19120 1-554) (domain or fragment)
